Our source for the Kd, concentration of barbed ends nucleated by 10 nM DiaFH1FH2 (from pyrene assays without profilin), 0 to 5.8 μM GST-EnaEVH1 and mean barbed end residence time values is PMC3992947.

pKd: −log10 of the molar value.

One assay deals with GST-EnaEVH1 (Drosophila). Put plainly: pull-down; purified proteins; DiaFH1-Cterm and glutathione-Sepharose beads constant, increasing GST-EVH1, 20 min at 25°; supernatants by SDS-PAGE, bound fraction fit to a quadratic equation.
Assay [1] concerns the target Mg-ATP-actin (actin filament barbed ends) (UniProt P68135). Put plainly: TIRF microscopy of single actin filaments; Oregon-green-labeled actin with Drosophila profilin and quantum-dot-clustered biotin-SNAP protein, flow cell at 23°C; barbed end residence time from a single exponential fit.

The term pKd denotes the negative decadic logarithm of the Kd, by convention in mol/L. A lower pKd goes with a large Kd. “DiaFH1-carboxyl-terminus (Cterm) (domain or fragment)”: the pKd with GST-EnaEVH1 (Drosophila) is 4.88.
Turning to GST-EnaEVH1 (domain or fragment), the concentration of barbed ends nucleated by 10 nM DiaFH1FH2 (from pyrene assays without profilin), 0 to 5.8 μM GST-EnaEVH1 in the assay with DiaFH1FH2 (Drosophila) came to 0.27 nM.
Turning to “QD-biotin-SNAP-EnaΔLinker (natural protein)”, the mean barbed end residence time in assay [1] was 95.2 s.
